{
  "source": "patent US20180369355A1",
  "about": "(TEXAS A AND M UNIVERSITY SYSTEM, published 2018)",
  "molecules": {"B1": {"name": "ClfA221-559 (other)", "chain": "VAADAPAAGTDITNQLTNVTVGIDSGTTVYPHQAGYVKLNYGFSVPNSAVKGDTFKITVPKELNLNGVTSTAKVPPIMAGDQVLANGVIDSDGNVIYTFTDYVNTKDDVKATLTMPAYIDPENVKKTGNVTLATGIGSTTANKTVLVDYEKYGKFYNLSIKGTIDQIDKTNNTYRQTIYVNPSGDNVIAPVLTGNLKPNTDSNALIDQQNTSIKVYKVDNAADLSESYFVNPENFEDVTNSVNITFPNPNQYKVEFNTPDDQITTPYIVVVNGHIDPNSKGDLALRSTLYGYNSNIIWRSMSWDNEVAFNNGSGSGDGIDKPVVPEQPDEPGEIEPIPE", "notes": "Recombinant, expressed in E. coli and purified by nickel chelate chromatography; the tag is not described; also called ClfA N2N3; ClfAN2N3"}},
  "key": {"[1]": {"target": "ClfA221-559 (S. aureus strain Newman) (UniProt Q53653)", "test": "SPR competition; 2 µM Tefibazumab with 1 µM ClfA221-559 over immobilized Fg (competitor: Fg)"}, "[2]": {"target": "ClfA221-559 (S. aureus strain Newman) (UniProt Q53653)", "test": "SPR competition; Tefibazumab 0.1-2 µM with 1 µM ClfA221-559 over immobilized human Fg (competitor: Fg)"}, "[3]": {"target": "ClfA221-559 (S. aureus strain Newman) (UniProt Q53653)", "test": "SPR competition: Tefibazumab mixed with 1 µM ClfA221-559, blocked ligand immobilized fibrinogen (Fg)"}, "[4]": {"target": "ClfA221-559 (S. aureus strain Newman) (UniProt Q53653)", "test": "SPR competition; 2 µM Tefibazumab with 1 µM ClfA221-559 over immobilized D-fragment (competitor: D-fragment)"}, "[5]": {"target": "ClfA221-559 (S. aureus strain Newman) (UniProt Q53653)", "test": "SPR competition: Tefibazumab mixed with 1 µM ClfA221-559, blocked ligand immobilized Fg D-fragment (Fg-D)"}, "[6]": {"target": "ClfA221-559 (S. aureus strain Newman) (UniProt Q53653)", "test": "SPR competition; Tefibazumab 0.1-2 µM with 1 µM ClfA221-559 over immobilized Fg D-fragment (competitor: D-fragment)"}, "[7]": {"target": "ClfA221-559 (S. aureus strain Newman) (UniProt Q53653)", "test": "SPR competition; 2 µM Tefibazumab with 1 µM ClfA221-559 over captured GST-tagged Fg γ-peptide (competitor: GST-γ-peptide)"}, "[8]": {"target": "ClfA221-559 (S. aureus strain Newman) (UniProt Q53653)", "test": "SPR competition: Tefibazumab (0.1 to 2 µM) mixed with 1 µM ClfA221-559, binding of ClfA221-559 to immobilized fibrinogen (Fg) is blocked"}, "[9]": {"target": "ClfA221-559 (S. aureus strain Newman) (UniProt Q53653)", "test": "SPR competition: Tefibazumab (0.1 to 2 µM) mixed with 1 µM ClfA221-559, binding of ClfA221-559 to immobilized Fg D-fragment (Fg-D) is blocked"}, "human fibrinogen [10]": {"target": "T1, human fibrinogen (human, UniProt P02671 20-629; P02675 31-491; P02679 27-437)", "T1 construct": "also called Fg; intact Fg", "T1 sequence 1": "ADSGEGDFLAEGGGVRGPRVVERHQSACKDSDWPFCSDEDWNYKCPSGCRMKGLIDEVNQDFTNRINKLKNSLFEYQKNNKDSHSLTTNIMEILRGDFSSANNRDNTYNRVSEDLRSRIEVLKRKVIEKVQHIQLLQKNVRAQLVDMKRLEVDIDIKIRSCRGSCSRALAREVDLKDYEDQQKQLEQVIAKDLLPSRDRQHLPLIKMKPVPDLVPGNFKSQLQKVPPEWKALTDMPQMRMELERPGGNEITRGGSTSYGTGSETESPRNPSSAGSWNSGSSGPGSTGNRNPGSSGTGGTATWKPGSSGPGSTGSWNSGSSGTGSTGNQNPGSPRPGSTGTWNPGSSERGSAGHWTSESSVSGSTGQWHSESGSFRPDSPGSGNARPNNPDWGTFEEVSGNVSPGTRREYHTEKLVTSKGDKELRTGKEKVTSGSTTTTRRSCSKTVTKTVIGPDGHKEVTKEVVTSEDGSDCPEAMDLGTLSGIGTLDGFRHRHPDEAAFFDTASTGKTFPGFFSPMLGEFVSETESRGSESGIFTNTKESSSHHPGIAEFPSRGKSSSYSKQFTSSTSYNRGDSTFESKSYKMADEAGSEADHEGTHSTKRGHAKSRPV", "T1 sequence 2": "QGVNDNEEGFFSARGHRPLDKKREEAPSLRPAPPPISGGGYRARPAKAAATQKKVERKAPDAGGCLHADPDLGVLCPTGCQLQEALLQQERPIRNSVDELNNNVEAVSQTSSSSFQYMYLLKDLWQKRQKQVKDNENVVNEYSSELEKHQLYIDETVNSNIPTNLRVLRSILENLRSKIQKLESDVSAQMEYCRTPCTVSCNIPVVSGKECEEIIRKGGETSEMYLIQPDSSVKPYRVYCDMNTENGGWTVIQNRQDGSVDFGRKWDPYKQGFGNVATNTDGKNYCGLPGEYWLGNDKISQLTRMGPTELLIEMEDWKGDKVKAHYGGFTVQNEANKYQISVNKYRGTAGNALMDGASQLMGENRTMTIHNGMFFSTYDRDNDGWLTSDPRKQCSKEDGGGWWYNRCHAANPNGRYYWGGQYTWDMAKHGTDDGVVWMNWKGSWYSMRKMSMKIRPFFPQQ", "T1 sequence 3": "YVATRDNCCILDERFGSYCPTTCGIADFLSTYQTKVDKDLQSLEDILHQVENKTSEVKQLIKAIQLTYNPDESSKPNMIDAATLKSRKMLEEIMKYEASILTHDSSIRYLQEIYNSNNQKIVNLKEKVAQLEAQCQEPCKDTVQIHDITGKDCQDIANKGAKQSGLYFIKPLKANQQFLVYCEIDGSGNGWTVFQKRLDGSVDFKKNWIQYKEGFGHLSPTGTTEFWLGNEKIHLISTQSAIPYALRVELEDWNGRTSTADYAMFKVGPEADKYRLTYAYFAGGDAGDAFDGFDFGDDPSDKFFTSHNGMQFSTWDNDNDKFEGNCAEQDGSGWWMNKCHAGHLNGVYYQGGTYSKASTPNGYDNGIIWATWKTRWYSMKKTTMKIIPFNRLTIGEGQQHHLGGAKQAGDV", "test": "ITC; full-length Fg against the synthetic C-terminal γ-chain peptide"}, "human fibrinogen [11]": {"target": "T1, human fibrinogen", "test": "ITC, ClfACC titrated into fibrinogen in the cell; OneSites fit box"}, "human fibrinogen [12]": {"target": "T1, human fibrinogen", "test": "ITC, ClfACC titrated into fibrinogen in the cell; OneSites fit box, unit not given"}, "human fibrinogen [13]": {"target": "T1, human fibrinogen", "test": "ITC; full-length Fg in the cell, ClfACC titrated in, 30 °C; full-length Fg in the cell, ClfACC titrated in"}, "human fibrinogen [14]": {"target": "T1, human fibrinogen", "test": "SPR; immobilized Fg against GST-γ-peptide"}, "Fg D-fragment [15]": {"target": "T2, Fg D-fragment (UniProt P02671 130-216; P02675 164-491; P02679 114-437)", "T2 construct": "domain: D-fragment; also called D-domain", "T2 sequence 1": "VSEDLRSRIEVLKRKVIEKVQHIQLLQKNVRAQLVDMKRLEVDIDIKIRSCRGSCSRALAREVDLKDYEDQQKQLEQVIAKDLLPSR", "T2 sequence 2": "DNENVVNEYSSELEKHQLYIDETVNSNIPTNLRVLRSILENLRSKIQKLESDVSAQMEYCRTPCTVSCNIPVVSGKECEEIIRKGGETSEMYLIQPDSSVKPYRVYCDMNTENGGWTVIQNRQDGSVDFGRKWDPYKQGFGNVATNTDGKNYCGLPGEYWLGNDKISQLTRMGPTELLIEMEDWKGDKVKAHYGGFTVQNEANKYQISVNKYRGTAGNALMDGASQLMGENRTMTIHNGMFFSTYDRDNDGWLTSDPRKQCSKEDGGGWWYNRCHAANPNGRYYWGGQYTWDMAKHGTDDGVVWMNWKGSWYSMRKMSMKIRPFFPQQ", "T2 sequence 3": "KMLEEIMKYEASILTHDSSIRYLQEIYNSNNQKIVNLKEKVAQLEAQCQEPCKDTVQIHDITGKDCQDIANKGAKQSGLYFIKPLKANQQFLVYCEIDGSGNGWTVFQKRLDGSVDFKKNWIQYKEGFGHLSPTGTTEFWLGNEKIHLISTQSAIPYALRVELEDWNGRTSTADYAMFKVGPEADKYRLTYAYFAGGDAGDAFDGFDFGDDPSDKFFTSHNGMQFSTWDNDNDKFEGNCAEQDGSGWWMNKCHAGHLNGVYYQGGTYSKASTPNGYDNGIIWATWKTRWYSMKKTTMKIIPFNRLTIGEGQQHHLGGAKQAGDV", "test": "SPR; immobilized Fg D-fragment against GST-γ-peptide"}, "human fibrinogen [16]": {"target": "T1, human fibrinogen", "test": "SPR; ClfA221-559 over immobilized intact Fg; immobilized intact Fg"}, "Fg D-fragment [17]": {"target": "T2, Fg D-fragment", "test": "SPR; ClfA221-559 over immobilized Fg D-fragment; immobilized Fg D-fragment"}, "ClfA221-559": {"target": "B1", "test": "SPR (Biacore), drawn table Ligand/analyte: GST-γ-peptide on the surface, ClfA221-559 as analyte"}, "ClfA370-559": {"target": "T3, ClfA370-559 (S. aureus, UniProt Q53653 370-559)", "T3 construct": "also called recombinant form of N3", "T3 sequence": "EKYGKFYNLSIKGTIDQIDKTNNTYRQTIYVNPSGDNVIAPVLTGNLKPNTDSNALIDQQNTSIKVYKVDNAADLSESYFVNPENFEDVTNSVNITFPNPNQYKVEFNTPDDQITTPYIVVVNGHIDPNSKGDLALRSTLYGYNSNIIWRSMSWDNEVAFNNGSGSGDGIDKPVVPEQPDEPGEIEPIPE", "test": "SPR (Biacore), drawn table Ligand/analyte: GST-γ-peptide on the surface, ClfA N3 domain (ClfA370-559) as analyte"}},
  "note": "Where no end group is shown, it is not given here.",
  "data": [
    {"molecule": "Tefibazumab (antibody)", "values": [
      {"measurement": "percent inhibition", "setting": "[1]", "value": 60, "unit": "%"},
      {"measurement": "IC50", "setting": "[2]", "value": 30, "unit": "nM"},
      {"measurement": "IC50 (read off the curve)", "setting": "[3]", "value": 300, "unit": "nM"},
      {"measurement": "percent inhibition", "setting": "[4]", "value": 70, "unit": "%"},
      {"measurement": "IC50 (read off the curve)", "setting": "[5]", "value": 300, "unit": "nM"},
      {"measurement": "IC50", "setting": "[6]", "value": 30, "unit": "nM"},
      {"measurement": "percent inhibition", "setting": "[7]", "value": 25, "unit": "%"},
      {"measurement": "IC50", "setting": "[8]", "value": 30.2, "unit": "nM"},
      {"measurement": "IC50", "setting": "[9]", "value": 29.6, "unit": "nM"}
    ]},
    {"molecule": "ClfACC (other, engineered disulfide bond between C327 and C541, also called disulfide bond-closed ClfACC; closed form of ClfA N2N3) GTDITNQLTNVTVGIDSGTTVYPHQAGYVKLNYGFSVPNSAVKGDTFKITVPKELNLNGVTSTAKVPPIMAGDQVLANGVIDSDGNVIYTFTDYVNTKCDVKATLTMPAYIDPENVKKTGNVTLATGIGSTTANKTVLVDYEKYGKFYNLSIKGTIDQIDKTNNTYRQTIYVNPSGDNVIAPVLTGNLKPNTDSNALIDQQNTSIKVYKVDNAADLSESYFVNPENFEDVTNSVNITFPNPNQYKVEFNTPDDQITTPYIVVVNGHIDPNSKGDLALRSTLYGYNSNIIWRSMSWDNEVAFNNGSGSGDGIDCPVVP", "values": [
      {"measurement": "fold higher affinity against the γ-chain peptide", "setting": "human fibrinogen [10]", "value": 30, "unit": "fold"},
      {"measurement": "N", "setting": "human fibrinogen [11]", "value": 1.57},
      {"measurement": "ΔH", "setting": "human fibrinogen [12]", "value": -13300},
      {"measurement": "Kd", "setting": "human fibrinogen [13]", "value": 300, "unit": "nM"}
    ]},
    {"molecule": "B1", "values": [
      {"measurement": "fold difference in KD against the γ-peptide", "setting": "human fibrinogen [14]", "value": "4 to 7", "unit": "fold"},
      {"measurement": "fold difference in KD against the γ-peptide", "setting": "Fg D-fragment [15]", "value": "4 to 7", "unit": "fold"},
      {"measurement": "Kd", "setting": "human fibrinogen [16]", "value": 980, "unit": "nM"},
      {"measurement": "Kd", "setting": "Fg D-fragment [17]", "value": 680, "unit": "nM"}
    ]},
    {"molecule": "{GST}-GEGQQHHLGGAKQAGDV (other, domain: γ-peptide (carboxy terminal of the γ-chain); 'expressed and purified as described earlier'; also called GST-γ-peptide; GST tagged γ-peptide; not shown: GST tag)", "note": "[GST-tagged Fg γ-peptide]", "values": [
      {"measurement": "Kd", "setting": "ClfA221-559", "value": 4300, "unit": "nM"},
      {"measurement": "Kd", "setting": "ClfA370-559", "value": 54000, "unit": "nM"}
    ]}
  ]
}
